T1: SUVR5 zinc finger domain (aa 720-866) (Arabidopsis thaliana, UniProt O64827 SEQ:1-147)
T1 sequence: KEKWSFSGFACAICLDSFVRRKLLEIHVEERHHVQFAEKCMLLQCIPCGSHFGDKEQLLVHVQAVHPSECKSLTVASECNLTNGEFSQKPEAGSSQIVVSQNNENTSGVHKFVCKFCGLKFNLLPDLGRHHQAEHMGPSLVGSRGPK

B1: specific probe (dsDNA)
DNA 1: GTAGAATACTAGTTGATAAC
DNA 2: GTTATCAACTAGTATTCTAC
B2: unspecific probe (dsDNA)
DNA 1: ACCAAGCAACACACCCCGT
DNA 2: ACGGGGTGTGTTGCTTGGT

Tests used:
[1] = biological target: T1, SUVR5 zinc finger domain (aa 720-866); assay: EMSA; 100, 250, 500 ng protein; 12% glycerol, 20 mM Tris-HCl pH 7.5, 50 mM KCl, 1 mM MgCl2, 1 mM DTT; settings: tags: GST fusion (pDEST15)
[2] = biological target: T1, SUVR5 zinc finger domain (aa 720-866); assay: EMSA; specificity control; specificity stated as confirmed by EMSA, gel only in figure; settings: tags: GST fusion (pDEST15)

Binder	binding result [1]	binding result [2]
B1	binds	–
B2	–	no binding

From patent US20150150156, “METHODS AND COMPOSITIONS FOR REDUCING GENE EXPRESSION IN PLANTS” (The Regents of the University of California, published 2015)
